In US20210145976A1:
Substitutions are numbered along the chain they refer to.

B1: SEQ ID NO 230 (designed binder)
chain: MLPAPKNLVVSRVTEDSARLSWTAPDAAFDSFQIRYPKRWISGEAIVLTVPGSERSYDLTGLKPGTEYEVVIRGVKGGEYSWPLSAIFTT
B2: SEQ ID NO 244 (designed binder)
chain: MLPAPKNLVVSRVTEDSARLSWTAPDAAFDSFHIDYSEFHLRGEAIVLTVPGSERSYDLTGLKPGTEYLGIFGVKGGEQSGPLSAIFTT
B3: SEQ ID NO 220 (designed binder)
chain: MLPAPKNLVVSRVTEDSARLSWTAPDAAFDSFHIIYEEDGTEGEAIYLRVPGSERSYDLTGLKPGTEYEVDIEGVKGGVLSWPLFAEFTT
B4: SEQ ID NO 226 (designed binder)
chain: B3 chain with D39V, G40L, E69G, D71T, E73K, V79A, L80Y, W82I, F85I, E87T
B5: SEQ ID NO 213 (designed binder)
chain: MLPAPKNLVVSRVTEDSARLSWTAPDAAFDSFWIYYWEIERAGEAIRLDVPGSERSYDLTGLKPGTEYRVDIWGVKGGPTSGPLRATFTT
B6: SEQ ID NO 201 (designed binder)
chain: MLPAPKNLVVSRVTEDSARLSWTAPDAAFDSFNIDYWETWVIGEAIVLTVPGSERSYDLTGLKPGTEYEVIIPGVKGGTISPPLSAIFTT
B7: SEQ ID NO 216 (designed binder)
chain: MLPAPKNLVVSRVTEDSARLSWTAPDAAFDSFPIAYAEPTPSGEAIVLTVPGSERSYDLTGLKPGTEYSVLIHGVKGGGLSLPLSAIFTT
B8: SEQ ID NO 233 (designed binder)
chain: B7 chain with P33Y, A35V, T40I, S42N, G79R, L80N, L82D
B9: SEQ ID NO 48 (designed binder)
chain: MLPAPKNLVVSRVTEDSARLSWTAPDAAFDSFVIEYFEQFNLGEAIVLTVPGSERSYDLTGLKPGTEYWVGIYGVKGGWLSHPLSAIFTT
B10: SEQ ID NO 235 (designed binder)
chain: MLPAPKNLVVSRVTEDSARLSWTAPDAAFDSFSINYREWWSDGEAIYLPVPGSERSYDLTGLKPGTEYAVYIQGVKGGSRSFPLHAWFTT
B11: SEQ ID NO 231 (designed binder)
chain: MLPAPKNLVVSRVTEDSARLSWTAPDAAFDSFEIPYIETVALGEAIVLTVPGSERSYDLTGLKPGTEYYVEIYGVKGGSYSYPLSAISTT
B12: SEQ ID NO 49 (designed binder)
chain: MLPAPKNLVVSRVTEDSARLSWTAPDAAFDSFGISYLEWWEDGEAIVLTVPGSERSYDLTGLKPGTEYWVSIAGVKGGKRSYPLSAIFTT
B13: SEQ ID NO 229 (designed binder)
chain: B12 chain with G33S, S35H, L37D, W39D, E41R, D42R, W69L, S71E, A73P, R80A
B14: SEQ ID NO 242 (designed binder)
chain: B12 chain with G33P, S35K, E41S, D42W, W69R, S71P, A73S, K79G, R80M, Y82G
B15: SEQ ID NO 227 (designed binder)
chain: B12 chain with G33R, S35R, E41N, D42I, W69H, S71D, A73W, K79Y, R80S
B16: SEQ ID NO 240 (designed binder)
chain: B12 chain with G33R, S35K, E41L, D42G, S71D, A73Q, K79V, R80L, Y82W
B17: SEQ ID NO 224 (designed binder)
chain: MLLAPKNLVVSRVTEDSARLSWTAPDAAFDSFRYLEQGLYGEAIVLTVPGSERSYDLTGLKPGTEYWVEIIGVKGGEYSTPLSAIFTT
B18: SEQ ID NO 203 (designed binder)
chain: MLPAPKNLVVSRVTEDSARLSWTAPDAALDSFRIEYYESYGHGEAIVLTVPGSERSYDLTGLKPGTEYDVGIYGVKGGYYSRPLSAIFTT
B19: SEQ ID NO 212 (designed binder)
chain: B9 chain with V33I, F37W, F40I, N41G, L42V, W79L, H82S
B20: SEQ ID NO 225 (designed binder)
chain: B9 chain with V33K, Q39Y, F40V, N41G, L42Y, W69Y, G71A, L80Y, H82R
B21: SEQ ID NO 214 (designed binder)
chain: MLPAPKNLVVSRVTEDSARLSWTAPDAAFDSFAIPYGERQELGEAIVLTVPGSERSYDLTGLKPGTEYFVVIQGVKGGQPSYPLSAIFTT
B22: SEQ ID NO 202 (designed binder)
chain: MLPAPKNLVVSRVTEDSARLSWTAPDAAFDSFYIDYLELTYSGEAIVLTVPGSERSYDLTGLKPGTEYYVYIYGVKGGYPSSPLSAIFTT
B23: SEQ ID NO 215 (designed binder)
chain: B7 chain with P33L, A35P, P39T, T40S, S42T, G79Y, L80P, L82S
B24: SEQ ID NO 222 (designed binder)
chain: B22 chain with D35E, L37F, L39W, Y41G, Y69N, Y71A, Y79A, P80V, S82Y
B25: SEQ ID NO 206 (designed binder)
chain: B22 chain with Y33D, D35E, L37D, T40W, Y41K, S42N, Y69R, Y71F, P80G, S82F
B26: SEQ ID NO 219 (designed binder)
chain: B22 chain with Y33H, S42A, Y71T
B27: SEQ ID NO 217 (designed binder)
chain: MLPAPKNLVVSRVTEDSARLSWTAPDAAFDSFIIEYWEWYFAGEAIVLTVPGSERSYDLTGLKPGTEYTVWITGVKGGTWSEPLSAIFTT
B28: SEQ ID NO 245 (designed binder)
chain: MLPAPKNLVVSRITEDSARLSWTAPDAAFDSFGIAYNEGDHYGEAIVLTVPGSERSYDLTGLKPGTEYSVWIEGVKGGNLSYPLSAIFTT
B29: SEQ ID NO 238 (designed binder)
chain: MLPAPKNLVVSRVTEDSARLSWTAPDAAFDSFKIFYQEFGGEAIVLTVPGSERSYDLTGLKPGTEYWVDIYGVKGGYTSSPLSAIFTT
B30: SEQ ID NO 207 (designed binder)
chain: MLPAPKNLVVSRVTEDSARLSWTAPDAAFDSFFIGYLEPQPPGEAIVLTVPGSERSYDLTGLKPGTEYNVTIQGVKGGTPSEPLSAISTT
B31: SEQ ID NO 204 (designed binder)
chain: MLPAPKNLVVSRVTEDSARLPWTAPDAAFDSFWISYYESVGYGEAIVLTVPGSERSYDLTGLKPGTEYYVDISGVKGGVYSLPLSAIFTT
B32: SEQ ID NO 221 (designed binder)
chain: MLPAPKNLVVSRVTEDSARLSWTAPDAAFDSFHISYQEVVAEGEAIYLRVPGSERSYDLTGLKPGTEYYVLIHGVKGGYESKPLDASFTT
B33: SEQ ID NO 47 (designed binder)
chain: MLPAPKNLVVSRVTEDSARLSWTAPDAAFDSFTIWYAEALGDGEAIVLTVPGSERSYDLTGLKPGTEYFVDIYGVKGGFWSLPLSAIFTT
B34: SEQ ID NO 223 (designed binder)
chain: B33 chain with Y73P, F79T, W80R, L82S, F88S
B35: SEQ ID NO 211 (designed binder)
chain: B33 chain with T33W, W35N, A37Y, L40Q, G41P, F69D, D71E, Y73A, F79T, W80A
B36: SEQ ID NO 218 (designed binder)
chain: B33 chain with W35L, A37Y, A39M, L40V, D42E, L62P, F69W, F79G, L82R
B37: SEQ ID NO 239 (designed binder)
chain: MLPAPKNLVVSRVTEDSARLSWTAPDAAFDSFAITYYEGRWRGEAIVLTVPGSERSYDLTGLKPGTEYGVPIRGVKGGTGSLPLSAIFTT
B38: SEQ ID NO 205 (designed binder)
chain: MLPAPKNLVVSRVTEDSARLSWTAPDAAFDSFDIDYDEPAWNGEAIVLTVPGSERSYDLTGLKPGTEYRVFIYGVKGGNTSWPLSAIFTT
B39: SEQ ID NO 208 (designed binder)
chain: MLPAPKNLVVSRVTEDSARLSWTAPDAAFDSFGIVYREPYVGGEAIVLTVPGSERSYDLTGLKPGTEYGVPIPGVKGGYDSGPLSAIFTT
B40: SEQ ID NO 210 (designed binder)
chain: MLPAPKNLVVSRVTEDSARLSWTAPDAAFDSFSIVYGERFVNGEAIVLTVPGSERSYDLTGLKPGTEYHVYIDGVKGGDLSWPLSAIFTT
B41: SEQ ID NO 241 (designed binder)
chain: B40 chain with S33N, V35Y, G37Y, R39W, N42S, H69F, Y71D, D79Y, L80R, W82R
B42: SEQ ID NO 237 (designed binder)
chain: B40 chain with S33T, V35L, R39M, F40G, V41T, N42T, H69D, Y71F, D73E, D79E

molecular target: human serum albumin (human) (UniProt P02768); assay: screening ELISA
Sequence (P02768 25-609 limits assumed): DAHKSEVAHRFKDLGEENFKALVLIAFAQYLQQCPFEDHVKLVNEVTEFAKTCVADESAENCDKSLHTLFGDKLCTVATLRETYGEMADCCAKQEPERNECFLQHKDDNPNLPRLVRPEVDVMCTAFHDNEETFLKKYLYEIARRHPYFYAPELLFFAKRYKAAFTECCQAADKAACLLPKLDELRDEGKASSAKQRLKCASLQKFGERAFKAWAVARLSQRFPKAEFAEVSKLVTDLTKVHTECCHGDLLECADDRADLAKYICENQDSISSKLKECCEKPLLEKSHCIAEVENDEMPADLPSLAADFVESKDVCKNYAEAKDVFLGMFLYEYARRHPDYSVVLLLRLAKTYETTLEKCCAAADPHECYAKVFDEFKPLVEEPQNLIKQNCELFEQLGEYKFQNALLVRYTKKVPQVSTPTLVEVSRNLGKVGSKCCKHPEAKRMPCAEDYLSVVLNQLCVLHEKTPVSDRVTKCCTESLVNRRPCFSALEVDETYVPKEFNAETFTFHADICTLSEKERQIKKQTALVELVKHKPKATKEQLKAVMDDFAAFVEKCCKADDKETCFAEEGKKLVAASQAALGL

HSA | Binder
1900 | B1
1650 | B2
9400 | B3
2850 | B4
9800 | B5
11400 | B6
21800 | B7
2600 | B8
2800 | B9
1350 | B10
26500 | B11
11500 | B12
3700 | B13
4900 | B14
2300 | B15
2050 | B16
16500 | B17
3300 | B18
2250 | B19
14100 | B20
2200 | B21

HSA | Binder
2800 | B22
1750 | B23
3950 | B24
2650 | B25
2600 | B26
11800 | B27
2900 | B28
4250 | B29
25600 | B30
24600 | B31
3650 | B32
5200 | B33
52000 | B34
3000 | B35
33800 | B36
5050 | B37
3350 | B38
46700 | B39
2250 | B40
2200 | B41
1850 | B42
